From publication PMC12802151

Experiments:
[1] = target: Beilong paramyxovirus (HMC isolate) receptor-binding protein, β-propeller head domain with C-terminal extension (BeiV(HMC)-RBPβ+) (Beilong paramyxovirus (BeiV), isolate from human mesangial cells (HMC)); assay: crystal structure; BeiV(HMC)-RBPβ+ at 3.2 mg/mL, sitting-drop vapor diffusion at room temperature, 0.2 M potassium thiocyanate, 0.1 M sodium cacodylate pH 6.5, 8% poly-γ-glutamic acid polymer; 3.5 Å; a dimer in the asymmetric unit
[2] = target: J paramyxovirus receptor-binding protein, β-propeller head domain with extended C-terminus (JPV-RBPβ+) (J paramyxovirus (JPV)); assay: crystal structure; JPV-RBPβ+ at 3.5 mg/mL, sitting-drop vapor diffusion at room temperature, 0.1 M tris/bicine pH 8.5, 0.2 M ammonium sulfate, Morpheus precipitant mix 4; 2.2 Å; a dimer in the asymmetric unit

| Substance | stoichiometry N [1] | stoichiometry N [2] |
| --- | --- | --- |
| Beilong paramyxovirus (HMC isolate) receptor-binding protein, β-propeller head domain with C-terminal extension (BeiV(HMC)-RBPβ+) (domain or fragment) | 2 |  |
| J paramyxovirus receptor-binding protein, β-propeller head domain with extended C-terminus (JPV-RBPβ+) (domain or fragment) |  | 2 |
